US8530235B2, “Medium that supports culture of an oocyte and modulation of granulosa cell apoptosis” (Adelaide Research & Innovation Pty Ltd., priority 2005, dated 2013)

Assays:
[1] = system: cumulus cells; assay: Cumulus cell apoptosis in oocytectomized complexes (OOX) and COC, TUNEL with confocal microscopy; format: cell-based, Bovine; conditions: for effect on incidence of cumulus cell apoptosis: OOX cultured with increasing doses (GDF-9 0-175 ng/ml, BMP-6 0-100 ng/ml, BMP-15 0-20% v/v, 5-50 DO), presence or absence of FSH
Experimental: Bovine ovaries were collected from local abattoir and transported to the laboratory in warm saline (30-35° C.). Cumulus-oocyte complexes (COC) were aspirated from antral follicles (2- to 8-mm diameter) using an 18-gauge needle and a 10-ml syringe containing ˜2 ml aspiration media (Hepes-buffered Tissue Cultured Medium-199: TCM-199, ICN Biochemicals, Irvine, Calif., USA) supplemented with 50 μg/ml kanamycin (Sigma-Aldrish, St. louis, Mo.), 4 mg/ml fatty acid-free bovine serum albumin (FAF-BSA) (ICPbio ltd, Auckland, NZ). Intact COC with compact cumulus vestment greater than five cell layers and evenly pigmented cytoplasm were selected under a dissecting microscope and washed twice in Hepes-buffered TCM-199 and once in corresponding culturing media.
The cytoplasm of each oocyte was microsurgically removed from the COC (oocytectomy) using a micromanipulator as described in Buccione et al (Buccione et al. (1990) Dev Biol 138, 16-25.). The resulting oocytectomized complex (OOX) consists of a hollow zona pellucida surrounded by several layers of intact CC.
Denuded oocytes (DO) were generated by removing CC from COC by vortexing for approximately 4 minutes in 2 ml H-TCM-199/BSA. Any remaining CC were removed by repeated passage of the oocytes through a fine-bore fire-polished glass pipette in H-TCM-199/BSA.
CC apoptoic DNA was detected using TUNEl (Roche Diagnostic, Penzberg, Germany) according to the manufacturer's instructions. Briefly, following culture COC and OOX complexes were washed twice in PBS (pH 7.4) containing 1% BSA, fixed in 4% paraformaldehyde in PBS (pH 7.4) overnight at 4° C. and washed twice with PBS/BSA before placing on Cell-Tak-coated coverslips (Beckton Dickinson Biosciences, Franklin lakes, N.J.). Complexes were then permeabilized in 0.11/u Triton X-100 in 0.1% sodium citrate for 1 hour at room temperature and washed 3 times in PBS/BSA. The complexes were then incubated in fluorescein-conjugated dUTP and terminal deoxynucleotide transferase (TUNEl reagents, Roche) for 1 hour at 37° C. in the dark. Positive controls were incubated in DNAse 1 (0.005 U/µl), which cleaves all DNA, for 20 minutes at room temperature and washed twice in PBS/BSA before TUNEl. Negative controls were incubated in fluorescein-dUTP in the absence of TdT. After TUNEl, complexes were washed twice in PBS/BSA and counterstained with propidium iodide 0.5 μg/ml (PI) plus RNase A (0.1 mg/ml) for 1 hour at room temperature in the dark to label all nuclei. Complexes were then washed twice in PBS/BSA and mounted with slight coverslip compression in VectaShield anti-bleaching solution (Vector labs, Burlingame, Calif.), and stored in the dark at 4° C. for confocal analysis.
Apoptosis in COC and OOX was visualised and quantified using confocal microscopy. Dual fluorescence emission from CC was detected using a Nikon C1 Confocal Scanning Head and a Nikon TE2000E microscope (Nikon, Tokyo, Japan). Simultaneous emission capture of the apoptotic signal (fluorescein, lacer excitation 488 nm, emission 510-530 nm) and the nuclear signal (propidium iodide, excitation lacer 532, emission 590-640 nm) was performed.
In order to generate an accurate representation of the overall apoptotic incidence for all complexes, the depth of each complex was measured through a Z series to divide the construct into three percentiles (optical Z plane sections) at 25%, 50% and 75%. These optical section images were acquired and saved as independent colour channels (green, apoptotic cumulus fluorescence and red, nuclear cumulus fluorescence). The captured images were then processed in Scanalytics IPlab software Version 3.6. (Scanalytics, Fairfax, Va.). Quantification of CC number (for each colour channel) was independently measured using a macro script utilizing an auto segmentation filter for each optical section percentile (3 optical “z”-plane sections for each complex).

[2] = system: cumulus cells; assay: Staurosporine-induced cumulus cell apoptosis in OOX (TUNEL); format: cell-based, Bovine; conditions: 10% BMP-15 or 10 ng/ml BMP-6
Experimental: CC apoptoic DNA was detected using TUNEl (Roche Diagnostic, Penzberg, Germany) according to the manufacturer's instructions. […] Complexes were then permeabilized in 0.11/u Triton X-100 in 0.1% sodium citrate for 1 hour at room temperature and washed 3 times in PBS/BSA. The complexes were then incubated in fluorescein-conjugated dUTP and terminal deoxynucleotide transferase (TUNEl reagents, Roche) for 1 hour at 37° C. in the dark. Positive controls were incubated in DNAse 1 (0.005 U/µl), which cleaves all DNA, for 20 minutes at room temperature and washed twice in PBS/BSA before TUNEl. Negative controls were incubated in fluorescein-dUTP in the absence of TdT. After TUNEl, complexes were washed twice in PBS/BSA and counterstained with propidium iodide 0.5 μg/ml (PI) plus RNase A (0.1 mg/ml) for 1 hour at room temperature in the dark to label all nuclei. Complexes were then washed twice in PBS/BSA and mounted with slight coverslip compression in VectaShield anti-bleaching solution (Vector labs, Burlingame, Calif.), and stored in the dark at 4° C. for confocal analysis. […] These optical section images were acquired and saved as independent colour channels (green, apoptotic cumulus fluorescence and red, nuclear cumulus fluorescence). The captured images were then processed in Scanalytics IPlab software Version 3.6. (Scanalytics, Fairfax, Va.). Quantification of CC number (for each colour channel) was independently measured using a macro script utilizing an auto segmentation filter for each optical section percentile (3 optical “z”-plane sections for each complex). A percentage of apoptotic nuclei were generated for each slice and the three percentile values were then averaged to achieve a representation of the total apoptotic nuclei percentage for the whole complex. These processes were repeated separately on each individual complex. A preliminary experiment was conducted to determine the apoptotic effect of staurosporine on bovine CC, which induced apoptosis in a dose-dependent manner (range; 0.1-100 μM, data not shown). The aim of this experiment was to determine whether OSF could prevent CC from undergoing apoptosis induced by staurosporine. OOX alone or co-cultured with 35 DO, 10 ng/ml BMP-6 or 10% (v/v) BMP-15, and were then exposed to either 0.1 μM or 1.0 μM staurospourine for the last 6 hours of the 24 hour incubation period. Three replicates of this experiment were carried out using 10 OOX per treatment group per replicate experiment.

Row | Molecule | effect on incidence of cumulus cell apoptosis [1] | effect on cumulus cell apoptosis ([1]; OOX treated with 100 ng/ml BMP-7 and/or 10% BMP-15) | effect on CC apoptosis, test for additive effect ([1]; OOX treated with DO, 10 ng/ml BMP-6 and/or 10% v/v BMP-15) | CC apoptosis of treated OOX exposed to staurosporine ([2]; 0.1 μM staurosporine) | CC apoptosis of treated OOX exposed to staurosporine ([2]; 1 μM staurosporine)
1 | GDF-9: Recombinant mouse GDF-9 produced in-house in transfected 293H cells, partially purified by HIC (protein, UniProt Q07105 307-441, looked up) Growth/differentiation factor …: GQKAIRSEAKGPLLTASFNLSEYFKQFLFPQNECELHDFRLSFSQLKWDNWIVAPHRYNPRYCKGDCPRAVRHRYGSPVHTMVQNIIYEKLDPSVPRPSCVPGKYSPLSVLTIEPDGSIAYKEYEDMIATRCTCR | no significant effect |  |  |  | 
2 | BMP-15: Recombinant ovine BMP-15 produced in-house in transfected 293H cells, partially purified by hydrophobic interaction chromatography; dosed as % v/v (protein, UniProt Q9MZE2 269-393, looked up) Bone morphogenetic protein 15: QAGSIASEVPGPSREHDGPESNQCSLHPFQVSFQQLGWDHWIIAPHLYTPNYCKGVCPRVLHYGLNSPNHAIIQNLVSELVDQNVPQPSCVPYKYVPISILLIEANGSILYKEYEGMIAQSCTCR | significantly reduced | significantly reduced | significantly (P<0.001) decreased | 17% | 25%
